Test results as given in patent US20240301429A1 (RSEM LIMITED PARTNERSHIP, published 2024).

T1: NRP1 trap AC (human, UniProt O14786 22-856)
T1 construct: a1a2-b1b2-c with D320K (held in the entry); Signal peptide not trimmed
T1 sequence: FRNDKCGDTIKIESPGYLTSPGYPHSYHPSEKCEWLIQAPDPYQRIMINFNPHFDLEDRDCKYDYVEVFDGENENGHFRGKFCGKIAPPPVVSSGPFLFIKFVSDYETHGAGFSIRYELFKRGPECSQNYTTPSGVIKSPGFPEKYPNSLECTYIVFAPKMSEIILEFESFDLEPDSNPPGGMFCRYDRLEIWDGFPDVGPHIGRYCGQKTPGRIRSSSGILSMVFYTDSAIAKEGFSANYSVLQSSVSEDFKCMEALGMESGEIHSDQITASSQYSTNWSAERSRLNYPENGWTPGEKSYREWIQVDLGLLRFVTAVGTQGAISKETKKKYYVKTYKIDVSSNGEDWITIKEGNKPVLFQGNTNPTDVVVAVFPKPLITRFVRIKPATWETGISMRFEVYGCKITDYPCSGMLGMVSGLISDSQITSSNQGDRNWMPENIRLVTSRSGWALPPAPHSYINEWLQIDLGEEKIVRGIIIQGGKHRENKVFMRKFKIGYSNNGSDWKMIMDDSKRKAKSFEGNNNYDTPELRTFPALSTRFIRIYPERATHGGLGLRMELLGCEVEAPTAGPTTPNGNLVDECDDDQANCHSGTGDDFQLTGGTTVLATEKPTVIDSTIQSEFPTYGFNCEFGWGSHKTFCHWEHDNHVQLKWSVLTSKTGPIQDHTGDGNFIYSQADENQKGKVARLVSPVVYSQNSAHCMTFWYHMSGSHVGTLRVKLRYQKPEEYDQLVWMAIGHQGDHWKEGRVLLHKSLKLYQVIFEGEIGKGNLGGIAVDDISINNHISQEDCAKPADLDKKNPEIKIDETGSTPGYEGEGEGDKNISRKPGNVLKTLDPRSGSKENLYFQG

T2: NRP1 trap R (human, UniProt O14786 22-856)
T2 construct: a1a2-b1b2-c with Y297A (the entry is the trap itself, so no substitution is applied)
T2 sequence: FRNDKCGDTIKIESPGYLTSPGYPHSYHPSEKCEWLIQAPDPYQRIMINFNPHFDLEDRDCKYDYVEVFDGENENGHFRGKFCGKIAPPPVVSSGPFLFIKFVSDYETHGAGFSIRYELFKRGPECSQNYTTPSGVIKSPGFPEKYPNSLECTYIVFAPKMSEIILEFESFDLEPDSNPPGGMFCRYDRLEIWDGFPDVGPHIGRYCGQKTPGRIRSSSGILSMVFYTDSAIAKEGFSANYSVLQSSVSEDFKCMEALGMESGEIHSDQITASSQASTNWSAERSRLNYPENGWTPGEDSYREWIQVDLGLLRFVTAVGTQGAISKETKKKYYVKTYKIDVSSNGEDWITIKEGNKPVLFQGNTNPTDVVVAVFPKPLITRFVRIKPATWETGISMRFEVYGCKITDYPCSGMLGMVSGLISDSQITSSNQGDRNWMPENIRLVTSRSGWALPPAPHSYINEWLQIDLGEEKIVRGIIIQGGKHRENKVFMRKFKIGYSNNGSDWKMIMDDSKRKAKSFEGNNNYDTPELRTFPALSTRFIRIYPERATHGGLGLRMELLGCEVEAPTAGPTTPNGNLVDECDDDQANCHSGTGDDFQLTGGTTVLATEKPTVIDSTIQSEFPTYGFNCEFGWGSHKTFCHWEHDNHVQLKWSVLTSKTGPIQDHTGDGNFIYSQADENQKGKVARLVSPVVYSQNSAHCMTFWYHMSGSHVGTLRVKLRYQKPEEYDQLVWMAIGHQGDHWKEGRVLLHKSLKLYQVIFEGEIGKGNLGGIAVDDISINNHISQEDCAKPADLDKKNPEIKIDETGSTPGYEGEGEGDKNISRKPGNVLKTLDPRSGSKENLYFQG

T3: NRP1 trap G (human, UniProt O14786 22-856)
T3 construct: a1a2-b1b2-c; The mature trap lacks the signal peptide (about aa 1-21, may vary)
T3 sequence: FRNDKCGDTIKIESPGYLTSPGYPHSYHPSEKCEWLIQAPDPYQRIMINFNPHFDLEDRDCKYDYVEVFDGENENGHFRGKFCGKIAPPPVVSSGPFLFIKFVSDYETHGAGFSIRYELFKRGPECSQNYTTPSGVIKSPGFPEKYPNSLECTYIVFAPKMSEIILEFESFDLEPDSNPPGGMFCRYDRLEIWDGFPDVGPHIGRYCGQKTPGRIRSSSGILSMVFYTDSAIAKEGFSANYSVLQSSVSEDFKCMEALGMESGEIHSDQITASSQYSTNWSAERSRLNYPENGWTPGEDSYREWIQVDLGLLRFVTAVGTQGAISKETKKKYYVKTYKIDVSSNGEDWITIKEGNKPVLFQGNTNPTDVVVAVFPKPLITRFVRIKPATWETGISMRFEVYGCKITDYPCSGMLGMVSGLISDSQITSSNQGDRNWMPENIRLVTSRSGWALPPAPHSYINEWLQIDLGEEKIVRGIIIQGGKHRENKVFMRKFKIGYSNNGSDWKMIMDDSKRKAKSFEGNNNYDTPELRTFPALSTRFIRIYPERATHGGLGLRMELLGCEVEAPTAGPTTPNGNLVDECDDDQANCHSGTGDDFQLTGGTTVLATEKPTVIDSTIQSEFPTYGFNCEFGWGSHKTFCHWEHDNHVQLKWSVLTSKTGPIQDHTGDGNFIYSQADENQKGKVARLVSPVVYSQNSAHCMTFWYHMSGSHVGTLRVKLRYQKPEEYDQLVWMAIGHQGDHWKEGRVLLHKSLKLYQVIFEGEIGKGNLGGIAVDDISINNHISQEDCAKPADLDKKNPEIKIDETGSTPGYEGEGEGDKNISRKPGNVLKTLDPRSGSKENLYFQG

B1: SEMA3A-FC (R&D systems) (Fc fusion)
chain: YQNGKNNVPRLKLSYKEMLESNNVITFNGLANSSSYHTFLLDEERSRLYVGAKDHIFSFDLVNIKDFQKIVWPVSYTRRDECKWAGKDILKECANFIKVLKAYNQTHLYACGTGAFHPICTYIEIGHHPEDNIFKLENSHFENGRGKSPYDPKLLTASLLIDGELYSGTAADFMGRDFAIFRTLGHHHPIRTEQHDSRWLNDPKFISAHLISESDNPEDDKVYFFFRENAIDGEHSGKATHARIGQICKNDFGGHRSLVNKWTTFLKARLICSVPGPNGIDTHFDELQDVFLMNFKDPKNPVVYGVFTTSSNIFKGSAVCMYSMSDVRRVFLGPYAHRDGPNYQWVPYQGRVPYPRPGTCPSKTFGGFDSTKDLPDDVITFARSHPAMYNPVFPMNNRPIVIKTDVNYQFTQIVVDRVDAEDGQYDVMFIGTDVGTVLKVVSIPKETWYDLEEVLLEEMTVFREPTAISAMELSTKQQQLYIGSTAGVAQLPLHRCDIYGKACAECCLARDPYCAWDGSACSRYFPTAKRRTRRQDIRNGDPLTHCSDLHHDNHHGHSPEERIIYGVENSSTFLECSPKSQRALVYWQFQRRNEERKEEIRVDDHIIRTDQGLLLRSLQQKDSGNYLCHAVEHGFIQTLLKVTLEVIDTEHLEELLHKDDDGDGSKTKEMSNSMTPSQKVWYRDFMQLINHPNLNTMDEFCEQVWKRDRKQRRQRPGHTPGNSNKWKHLQENKKGRNRRTHEFERAPRSV
notes: Bought reagent; not shown: Fc portion of the bought fusion, detected with anti-human IgG

How the values were obtained:
Experiment in all cases: saturation binding, trap coated on plate, SEMA3A-FC titrated, anti-human IgG-HRP chemiluminescence
NRP1 trap AC = biological target: T1, NRP1 trap AC
Experimental: (§1) Sema 3A and AP-VEGF₁₆₅ binding assays. Saturation curves for the determinations of KD of binding to SEMA 3A or VEGF165 were obtained as follow. Wells of high protein binding 96 well plates (Maxisorp, Nunc) were coated with purified traps diluted in PBS and blocked afterward with binding buffer (PBS containing 2% casein and 0.05% Tween 20). The SEMA3A-FC (R&D systems) or AP-VEGF165 ligands were diluted in binding buffer over an extensive range of concentrations and added to wells. Following an overnight incubation, wells were washed with PBS containing 0.05% tween. Bound SEMA3a-FC was detected using an HRP-linked anti-Human IgG (Biorad) and ECL substrate (Pierce). Alternatively, bound AP-VEGF165 was detected using CPD star substrate (Roche). The Chemiluminescent signal was acquired on a TECAN reader. Dissociation constant (KD) were determined by non-linear curve fitting using the Graph Pad prism software.

NRP1 trap R = biological target: T2, NRP1 trap R
Experimental: as §1

NRP1 trap G = biological target: T3, NRP1 trap G
Experimental: as §1

SEMA3A-FC (R&D systems) = biological target: B1
Experimental: as §1

Kd (NRP1 trap AC) [nM]	Kd (NRP1 trap R) [nM]	Kd (NRP1 trap G) [nM]	binding result (SEMA3A-FC (R&D systems))	Binder
4	6.15	0.8	–	B1
–	–	–	no binding	NRP1 trap AF (receptor, a1a2b2c, deleted aa 281-430 and 857-923; The mature column prints 'About 22-429 and 431-856', against 1-280 and 431-856 in the column with signal peptide; Signal peptide not trimmed) FRNDKCGDTIKIESPGYLTSPGYPHSYHPSEKCEWLIQAPDPYQRIMINFNPHFDLEDRDCKYDYVEVFDGENENGHFRGKFCGKIAPPPVVSSGPFLFIKFVSDYETHGAGFSIRYELFKRGPECSQNYTTPSGVIKSPGFPEKYPNSLECTYIVFAPKMSEIILEFESFDLEPDSNPPGGMFCRYDRLEIWDGFPDVGPHIGRYCGQKTPGRIRSSSGILSMVFYTDSAIAKEGFSANYSVLQSSVSEDFKKITDYPCSGMLGMVSGLISDSQITSSNQGDRNWMPENIRLVTSRSGWALPPAPHSYINEWLQIDLGEEKIVRGIIIQGGKHRENKVFMRKFKIGYSNNGSDWKMIMDDSKRKAKSFEGNNNYDTPELRTFPALSTRFIRIYPERATHGGLGLRMELLGCEVEAPTAGPTTPNGNLVDECDDDQANCHSGTGDDFQLTGGTTVLATEKPTVIDSTIQSEFPTYGFNCEFGWGSHKTFCHWEHDNHVQLKWSVLTSKTGPIQDHTGDGNFIYSQADENQKGKVARLVSPVVYSQNSAHCMTFWYHMSGSHVGTLRVKLRYQKPEEYDQLVWMAIGHQGDHWKEGRVLLHKSLKLYQVIFEGEIGKGNLGGIAVDDISINNHISQEDCAKPADLDKKNPEIKIDETGSTPGYEGEGEGDKNISRKPGNVLKTLDPRSGSKENLYFQG
–	–	–	no binding	NRP1 trap X (receptor, a1a2-b1-c with Y297A (held in the entry); Signal peptide not trimmed) FRNDKCGDTIKIESPGYLTSPGYPHSYHPSEKCEWLIQAPDPYQRIMINFNPHFDLEDRDCKYDYVEVFDGENENGHFRGKFCGKIAPPPVVSSGPFLFIKFVSDYETHGAGFSIRYELFKRGPECSQNYTTPSGVIKSPGFPEKYPNSLECTYIVFAPKMSEIILEFESFDLEPDSNPPGGMFCRYDRLEIWDGFPDVGPHIGRYCGQKTPGRIRSSSGILSMVFYTDSAIAKEGFSANYSVLQSSVSEDFKCMEALGMESGEIHSDQITASSQASTNWSAERSRLNYPENGWTPGEDSYREWIQVDLGLLRFVTAVGTQGAISKETKKKYYVKTYKIDVSSNGEDWITIKEGNKPVLFQGNTNPTDVVVAVFPKPLITRFVRIKPATWETGISMRFEVYGCKITDYPEVEAPTAGPTTPNGNLVDECDDDQANCHSGTGDDFQLTGGTTVLATEKPTVIDSTIQSEFPTYGFNCEFGWGSHKTFCHWEHDNHVQLKWSVLTSKTGPIQDHTGDGNFIYSQADENQKGKVARLVSPVVYSQNSAHCMTFWYHMSGSHVGTLRVKLRYQKPEEYDQLVWMAIGHQGDHWKEGRVLLHKSLKLYQVIFEGEIGKGNLGGIAVDDISINNHISQEDCAKPADLDKKNPEIKIDETGSTPGYEGEGEGDKNISRKPGNVLKTLDPRSGSKENLYFQG
